In paper PMC8294589 one finds Km of PP2A-B56γ1 holoenzyme phosphatase activity toward pS133-CREB (129–154), steady-state kinetics with a phosphate sensor (peptide 3.9 to 250 μM) data, which are given here for one substance.

The assay concerns the target PP2A-B56γ1 holoenzyme (UniProt P30153).

pS133-CREB (129–154) peptide, sequence (P16220 129-154): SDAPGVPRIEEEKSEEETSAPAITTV
PP2A-B56γ1 holoenzyme, sequence (P30153 whole entry, chain 1 of 3, other chains not shown): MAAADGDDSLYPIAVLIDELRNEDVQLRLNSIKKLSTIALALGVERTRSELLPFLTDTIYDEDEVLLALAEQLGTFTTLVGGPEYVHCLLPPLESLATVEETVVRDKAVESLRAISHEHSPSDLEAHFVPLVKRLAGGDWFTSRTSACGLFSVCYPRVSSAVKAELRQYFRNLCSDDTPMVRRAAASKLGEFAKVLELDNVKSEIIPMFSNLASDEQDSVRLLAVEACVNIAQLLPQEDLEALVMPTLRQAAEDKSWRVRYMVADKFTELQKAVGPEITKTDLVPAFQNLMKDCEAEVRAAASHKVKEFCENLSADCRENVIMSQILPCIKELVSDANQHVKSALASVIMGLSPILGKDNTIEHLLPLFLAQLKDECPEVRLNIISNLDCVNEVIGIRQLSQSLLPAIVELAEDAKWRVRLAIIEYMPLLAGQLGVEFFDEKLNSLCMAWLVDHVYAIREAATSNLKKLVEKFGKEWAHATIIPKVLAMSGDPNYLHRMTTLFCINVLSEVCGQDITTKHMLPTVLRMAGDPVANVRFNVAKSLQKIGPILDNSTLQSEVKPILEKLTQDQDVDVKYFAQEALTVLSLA
PP2A-B56γ1 holoenzyme, sequence (P67775 whole entry, chain 2 of 3, other chains not shown, further chain): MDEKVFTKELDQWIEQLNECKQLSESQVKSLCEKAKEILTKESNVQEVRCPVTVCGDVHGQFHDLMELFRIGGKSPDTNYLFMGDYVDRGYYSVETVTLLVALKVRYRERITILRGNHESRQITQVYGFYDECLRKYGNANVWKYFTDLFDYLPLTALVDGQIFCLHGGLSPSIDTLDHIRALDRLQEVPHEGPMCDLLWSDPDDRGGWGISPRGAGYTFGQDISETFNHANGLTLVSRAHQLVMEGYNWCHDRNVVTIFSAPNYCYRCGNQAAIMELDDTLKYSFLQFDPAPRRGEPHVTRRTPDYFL

Consider “pS133-CREB (129–154) peptide (from UniProt P16220-2 129-154)”, for which the Km of PP2A-B56γ1 holoenzyme phosphatase activity toward pS133-CREB (129–154), steady-state kinetics with a phosphate sensor (peptide 3.9 to 250 μM) turned out to be 10.3 μM.
